Laboratory results published in patent publication US20200096507A1.
Blank lines part the entries; values can stand above or below the substance they belong to.

How the values were obtained:
Assay in all cases: cell-based or functional assay
CadC-wtTM-GCN4 (E. coli) = CadC-wtTM-GCN4 (E. coli) (UniProt P23890)
[1] = target: CadC-artTM-GCN4 (E. coli) (UniProt P23890)
DsRed = DsRed (UniProt Q9U6Y8)
Chain of DsRed (Q9U6Y8 whole entry): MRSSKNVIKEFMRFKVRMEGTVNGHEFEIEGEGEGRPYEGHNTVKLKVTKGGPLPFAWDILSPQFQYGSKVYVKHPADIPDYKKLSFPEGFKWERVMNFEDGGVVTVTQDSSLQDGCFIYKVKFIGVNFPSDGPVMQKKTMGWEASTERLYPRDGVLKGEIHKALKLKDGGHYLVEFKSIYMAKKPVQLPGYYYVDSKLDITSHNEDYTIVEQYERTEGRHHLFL

fold change in GFP expression compared to the construct without GCN4 (pCadBA-GFP reporter, E. coli, flow cytometry) (CadC-wtTM-GCN4 (E. coli)): 50 fold
Substance: CadC-wtTM-GCN4 (from UniProt P23890 1-187; P03069 253-274)

fold change in GFP expression compared to the construct without GCN4 (pCadBA-GFP reporter, E. coli, flow cytometry) [1]: 300 fold
Substance: CadC-artTM-GCN4 (from UniProt P23890 1-154; P03069 253-274)

deGFP signal strength with DsRed in the medium (cell-free system, pLexA-deGFP reporter 300 ng/reaction, LexA-Lam4 plasmid 800 ng/reaction) (DsRed): 4850 a.u. | deGFP signal strength without DsRed in the medium (baseline; cell-free system, pLexA-deGFP reporter 300 ng/reaction, LexA-Lam4 plasmid 800 ng/reaction) (DsRed): 41400 a.u. | ratio of deGFP signal strength without and with DsRed (cell-free system, pLexA-deGFP reporter 300 ng/reaction, LexA-Lam4 plasmid 800 ng/reaction) (DsRed): 8.5
Substance: LexA-DBD-Lam4 (from UniProt P0A7C2 1-87)
